# B1: HCMV glycoprotein US10, untagged, transiently expressed (natural protein)
# chain: ATEETREPTYFTCGCVIQNHVLKGAVKLYGQFPSPKTLRASAWLHDGENHERHRQPILVEGTATATEALYILLPTELSSPEGNRPRNYSATLTLASRDCYERFVCPVYDSGTPMGVLMNLTYLWYLGDYGAILKIYFGLFCGACVITRSLLLICGYYPPRE
# Key:
# Experiment in all cases: co-IP
# [1] = target: β2m-assembled HA-HLA-C*07:02 (human | human (endogenous in HeLa))
# [2] = target: β2m-assembled HA-HLA-C*05:01 (human | human (endogenous in HeLa))
# [3] = target: β2m-assembled HA-HLA-G*01:01 (human | human (endogenous in HeLa))
binder,measurement,setting,value
B1,US10 signal intensity relative to the maximum (HLA-G-bound US10),[1],0.2 fold of max
same,US10 signal intensity relative to the maximum (HLA-G-bound US10),[2],0.7 fold of max
same,US10 signal intensity relative to the maximum (HLA-G-bound US10),[3],1 fold of max

# — article PMC11189632
